Measured values from patent US20250332261A1.

Molecular target: human epidermal growth factor receptor 1 (EGFR1) (human) (UniProt P00533)
Experiment: tritium-labelled compound 5 µg/ml, 3 h +37 °C, FaDu cells, scintillation counting of lysate; internalized plus surface-bound; mean of three ± S.D.; negative control

% internalized/100000 cells (% internalized/100000 cells): 0.01
Substance: Control-mAb (omalizumab, anti-IgE) (antibody)
